Square brackets hold non-standard residues; d marks the D form. Ends that are not written are not given here. Tyr(3-NO2) = N[C@@H](Cc1ccc(O)c([N+](=O)[O-])c1)C(=O)O; Nle = CCCC[C@H](N)C(=O)O; 2Abz = Nc1ccccc1C(=O)O
What was measured:
Type in all cases: biochemical
[1] = target: T1, matriptase (Homo sapiens, UniProt Q9Y5Y6); assay: FRET peptide cleavage efficiency with matriptase
T1 construct: purchased R&D Systems 3946-SEB
T1 sequence (Q9Y5Y6 615-855 limits assumed): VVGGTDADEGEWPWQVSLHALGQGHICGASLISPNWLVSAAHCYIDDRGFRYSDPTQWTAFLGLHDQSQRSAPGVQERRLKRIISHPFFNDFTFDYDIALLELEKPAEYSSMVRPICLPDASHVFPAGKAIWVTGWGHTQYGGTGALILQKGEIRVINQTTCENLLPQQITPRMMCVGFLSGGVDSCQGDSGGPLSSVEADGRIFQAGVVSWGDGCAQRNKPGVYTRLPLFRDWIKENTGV

[2] = target: T2, MMP-7 (Homo sapiens, UniProt P09237); assay: FRET peptide cleavage efficiency with MMP-7 (standard pH 7.5; also pH 6.5)
T2 construct: purchased SIGMA CC1059
T2 sequence (P09237 95-267): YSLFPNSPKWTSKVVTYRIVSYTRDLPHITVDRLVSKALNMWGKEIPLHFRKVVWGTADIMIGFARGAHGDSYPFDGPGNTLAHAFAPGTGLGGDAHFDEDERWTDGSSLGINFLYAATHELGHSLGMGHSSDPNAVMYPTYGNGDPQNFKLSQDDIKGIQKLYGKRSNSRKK

[3] = target: T3, MMP-9 (Homo sapiens, UniProt P14780); assay: FRET peptide cleavage efficiency with MMP-9 (standard pH 7.5; also pH 6.5)
T3 construct: purchased SIGMA PF024
T3 sequence (P14780 94-707): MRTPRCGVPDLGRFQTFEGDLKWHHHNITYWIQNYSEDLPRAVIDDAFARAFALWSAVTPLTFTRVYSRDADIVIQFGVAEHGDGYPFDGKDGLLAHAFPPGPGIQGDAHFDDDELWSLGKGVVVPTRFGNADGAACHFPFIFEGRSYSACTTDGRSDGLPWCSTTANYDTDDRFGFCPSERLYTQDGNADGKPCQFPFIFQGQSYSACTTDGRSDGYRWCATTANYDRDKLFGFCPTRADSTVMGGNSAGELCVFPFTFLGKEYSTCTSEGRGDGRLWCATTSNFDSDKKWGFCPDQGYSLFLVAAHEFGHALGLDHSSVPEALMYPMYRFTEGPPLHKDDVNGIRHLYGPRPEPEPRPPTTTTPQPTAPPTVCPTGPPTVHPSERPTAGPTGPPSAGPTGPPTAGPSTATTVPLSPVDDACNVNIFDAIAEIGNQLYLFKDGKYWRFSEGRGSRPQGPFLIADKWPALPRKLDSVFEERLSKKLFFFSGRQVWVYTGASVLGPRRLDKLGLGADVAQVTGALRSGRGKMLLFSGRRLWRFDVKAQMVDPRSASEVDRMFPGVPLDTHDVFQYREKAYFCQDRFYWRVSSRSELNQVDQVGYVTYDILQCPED

[4] = target: T4, MMP-2 (Homo sapiens, UniProt P08253); assay: FRET peptide cleavage efficiency with MMP-2
T4 construct: purchased SIGMA PF023
T4 sequence (P08253 110-660): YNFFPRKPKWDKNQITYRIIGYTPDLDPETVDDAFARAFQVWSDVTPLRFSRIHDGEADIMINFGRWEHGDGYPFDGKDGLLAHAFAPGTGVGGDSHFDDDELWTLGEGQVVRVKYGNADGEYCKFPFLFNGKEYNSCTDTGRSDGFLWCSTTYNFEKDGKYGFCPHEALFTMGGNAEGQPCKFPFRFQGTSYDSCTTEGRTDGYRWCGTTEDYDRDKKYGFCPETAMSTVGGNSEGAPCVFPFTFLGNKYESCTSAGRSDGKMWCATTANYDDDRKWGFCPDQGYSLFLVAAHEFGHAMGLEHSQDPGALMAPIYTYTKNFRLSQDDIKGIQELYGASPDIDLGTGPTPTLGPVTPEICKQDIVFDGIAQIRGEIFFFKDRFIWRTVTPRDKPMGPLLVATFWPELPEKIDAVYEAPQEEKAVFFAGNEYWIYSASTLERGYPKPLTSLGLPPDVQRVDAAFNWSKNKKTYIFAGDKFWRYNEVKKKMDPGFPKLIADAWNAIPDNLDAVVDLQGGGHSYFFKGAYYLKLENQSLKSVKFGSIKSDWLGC

[5] = target: uPA (Homo sapiens, UniProt P00749); assay: FRET peptide cleavage efficiency with uPA
[6] = t = 15 min, 200 uM linker, 1 ug/ml protease, 37° C., buffer B pH 9.0
[7] = t = 60 min, 200 uM linker, 1 ug/ml protease, 37° C., buffer B pH 9.0
[8] = 200 uM linker, 1 ug/ml protease, 37° C., buffer B pH 9.0
[9] = t = 15 min, 200 uM linker, 1 ug/ml protease, 37° C., buffer C pH 7.5
[10] = t = 60 min, 200 uM linker, 1 ug/ml protease, 37° C., buffer C pH 7.5
[11] = t = 120 min, 200 uM linker, 1 ug/ml protease, 37° C., buffer C pH 7.5
[12] = 200 uM linker, 1 ug/ml protease, 37° C., buffer A pH 8.5
[13] = t = 60 min, 200 uM linker, 1 ug/ml protease, 37° C., buffer A pH 8.5
[14] = t = 120 min, 200 uM linker, 1 ug/ml protease, 37° C., buffer A pH 8.5
[15] = t = 15 min, standard conditions (Table 8)
[16] = t = 60 min, standard conditions (Table 8)
[17] = t = 120 min, standard conditions (Table 8)

Substance | % cleavage Matriptase t = 15 min [1, 6] [%] | % cleavage Matriptase t = 60 min [1, 7] [%] | % cleavage Matriptase t = 120 min [1, 8] [%] | % cleavage MMP-7 t = 15 min ([2]; t = 15 min (Table 9)) [%] | % cleavage MMP-7 t = 60 min ([2]; t = 60 min (Table 9)) [%] | % cleavage MMP-7 t = 120 min ([2]; t = 120 min (Table 9)) [%] | % cleavage MMP-9 t = 15 min ([3]; t = 15 min (Table 9)) [%] | % cleavage MMP-9 t = 60 min ([3]; t = 60 min (Table 9)) [%] | % cleavage MMP-9 t = 120 min ([3]; t = 120 min (Table 9)) [%] | % cleavage MMP-2 t = 15 min ([4]; t = 15 min (Table 9)) [%] | % cleavage MMP-2 t = 15 min [4, 9] [%] | % cleavage MMP-2 t = 60 min ([4]; t = 60 min (Table 9)) [%] | % cleavage MMP-2 t = 60 min [4, 10] [%] | % cleavage MMP-2 t = 120 min ([4]; t = 120 min (Table 9)) [%] | % cleavage MMP-2 t = 120 min [4, 11] [%] | % cleavage uPA t = 15 min [5, 12] [%] | % cleavage uPA t = 60 min [5, 13] [%] | % cleavage uPA t = 120 min [5, 14] [%] | % cleavage Matriptase t = 15 min [1, 15] [%] | % cleavage Matriptase t = 60 min [1, 16] [%] | other results
RGRRVANPLGLAGSG ([2Abz]RGRRVANPLGLAGSG[Tyr(3-NO2)]-NH2) [LNK050] | 78 | 100 | 100 | 1 | 3 | 6 | 52 | 100 | 100 | 54 | 54 | 100 | 100 | 100 | 100 | 1 | 3 | 6 | – | – | –
SGRVLRKAGPANLVG ([2Abz]SGRVLRKAGPANLVG[Tyr(3-NO2)]-NH2) [LNK014] | 97 | 95 | 95 | 25 | 79 | 100 | 98 | 99 | 100 | 91 | 93 | 96 | 97 | 100 | 97 | 0 | 2 | 7 | – | – | % cleavage Matriptase t = 15 min ([1]; pH 6.5, t = 15 min (Table 7)): 70%; % cleavage Matriptase t = 60 min ([1]; pH 6.5, t = 60 min (Table 7)): 100%; % cleavage Matriptase t = 15 min ([1]; pH 7.5, t = 15 min (Table 7)): 100%; % cleavage Matriptase t = 60 min ([1]; pH 7.5, t = 60 min (Table 7)): 100%; % cleavage MMP-2 t = 15 min ([4]; pH 6.5, t = 15 min (Table 7)): 100%; % cleavage MMP-2 t = 60 min ([4]; pH 6.5, t = 60 min (Table 7)): 100%; % cleavage MMP-2 t = 15 min ([4]; pH 7.5, t = 15 min (Table 7)): 100%; % cleavage MMP-2 t = 60 min ([4]; pH 7.5, t = 60 min (Table 7)): 100%; % cleavage uPA t = 60 min ([5]; pH 6.5, t = 60 min (Table 7)): 0%; % cleavage uPA t = 120 min ([5]; pH 6.5, t = 120 min (Table 7)): 0%; % cleavage uPA t = 60 min ([5]; pH 7.5, t = 60 min (Table 7)): 0%; % cleavage uPA t = 120 min ([5]; pH 7.5, t = 120 min (Table 7)): 0%
SGRVAPY-Nle-LQG ([2Abz]SGRVAPY[Nle]LQG[Tyr(3-NO2)]-NH2) [LNK043] | – | – | – | 61 | 100 | 100 | 32 | 93 | 100 | 34 | – | 78 | – | 91 | – | – | – | – | 24 | 73 | % cleavage Matriptase t = 120 min ([1]; standard conditions (Table 8)): 100%; % cleavage MMP-7 t = 15 min [2, 15]: 61%; % cleavage MMP-7 t = 60 min [2, 16]: 100%; % cleavage MMP-7 t = 120 min [2, 17]: 100%; % cleavage MMP-9 t = 15 min [3, 15]: 32%; % cleavage MMP-9 t = 60 min [3, 16]: 93%; % cleavage MMP-9 t = 120 min [3, 17]: 100%; % cleavage MMP-2 t = 60 min [4, 16]: 78%; % cleavage MMP-2 t = 120 min [4, 17]: 91%; % vcleavage uPA t = 15 min ([5]; standard conditions (Table 8)): 0%; % cleavage uPA t = 60 min [5, 16]: 0%; % cleavage uPA t = 120 min [5, 17]: 0%
RGRKSPANLVG ([2Abz]RGRKSPANLVG[Tyr(3-NO2)]-NH2) [LNK034] | – | – | – | 32 | 89 | 100 | 100 | 100 | 100 | 92 | – | 100 | – | 100 | – | – | – | – | 100 | 100 | % cleavage Matriptase t = 120 min ([1]; standard conditions (Table 8)): 100%; % cleavage MMP-7 t = 15 min [2, 15]: 32%; % cleavage MMP-7 t = 60 min [2, 16]: 89%; % cleavage MMP-7 t = 120 min [2, 17]: 100%; % cleavage MMP-9 t = 15 min [3, 15]: 100%; % cleavage MMP-9 t = 60 min [3, 16]: 100%; % cleavage MMP-9 t = 120 min [3, 17]: 100%; % cleavage MMP-2 t = 60 min [4, 16]: 100%; % cleavage MMP-2 t = 120 min [4, 17]: 100%; % vcleavage uPA t = 15 min ([5]; standard conditions (Table 8)): 0%; % cleavage uPA t = 60 min [5, 16]: 0%; % cleavage uPA t = 120 min [5, 17]: 0%
SGRVY-Nle-LQG ([2Abz]SGRVY[Nle]LQG[Tyr(3-NO2)]-NH2) [LNK045] | – | – | – | 0 | 0 | 0 | 0 | 0 | 0 | 0 | – | 0 | – | 0 | – | – | – | – | 0 | 0 | % cleavage Matriptase t = 120 min ([1]; standard conditions (Table 8)): 0%; % cleavage MMP-7 t = 15 min [2, 15]: 0%; % cleavage MMP-7 t = 60 min [2, 16]: 0%; % cleavage MMP-7 t = 120 min [2, 17]: 0%; % cleavage MMP-9 t = 15 min [3, 15]: 0%; % cleavage MMP-9 t = 60 min [3, 16]: 0%; % cleavage MMP-9 t = 120 min [3, 17]: 0%; % cleavage MMP-2 t = 60 min [4, 16]: 0%; % cleavage MMP-2 t = 120 min [4, 17]: 0%; % vcleavage uPA t = 15 min ([5]; standard conditions (Table 8)): 0%; % cleavage uPA t = 60 min [5, 16]: 0%; % cleavage uPA t = 120 min [5, 17]: 0%
RGRRVANYFGKL ([2Abz]RGRRVANYFGKL[Tyr(3-NO2)]-NH2) [LNK055] | 67 | 100 | 100 | 0 | 0 | 0 | 35 | 81 | 100 | 85 | 85 | 100 | 100 | 100 | 100 | 2 | 4 | 8 | – | – | –
SGRVAPQPLVD (not fully specified (N-terminus, C-terminus)) [LNK046] | – | – | – | 77 | 100 | 100 | 23 | 74 | 92 | 19 | – | 64 | – | 88 | – | – | – | – | 19 | 65 | % cleavage Matriptase t = 120 min ([1]; standard conditions (Table 8)): 91%; % cleavage MMP-7 t = 15 min [2, 15]: 77%; % cleavage MMP-7 t = 60 min [2, 16]: 100%; % cleavage MMP-7 t = 120 min [2, 17]: 100%; % cleavage MMP-9 t = 15 min [3, 15]: 23%; % cleavage MMP-9 t = 60 min [3, 16]: 74%; % cleavage MMP-9 t = 120 min [3, 17]: 92%; % cleavage MMP-2 t = 60 min [4, 16]: 64%; % cleavage MMP-2 t = 120 min [4, 17]: 88%; % vcleavage uPA t = 15 min ([5]; standard conditions (Table 8)): 1%; % cleavage uPA t = 60 min [5, 16]: 4%; % cleavage uPA t = 120 min [5, 17]: 7%
SGRVANPLGGSG ([2Abz]SGRVANPLGGSG[Tyr(3-NO2)]-NH2) [LNK053] | 3 | 11 | 20 | 0 | 0 | 0 | 1 | 3 | 4 | 2 | 2 | 5 | 5 | 8 | 8 | 1 | 5 | 12 | – | – | –
